From patent US20230066984A1, “New Carbon Glycoside Glycosyltransferase and Use Thereof” (CAS Center for Excellence in Molecular Plant Sciences, priority 2020, published 2023)

Experiment: In vitro functional identification of C-glycosyltransferases by HPLC, phloretin as glycosyl receptor
Format: biochemical
Settings: 0.1 mM phloretin, 0.3 mM UDP glucose, crude enzyme, 37° C., 2 h, HPLC (FIG. 1A)
Procedure: The recombinant plasmid was transformed into competent cells of Escherichia coli BL21 (DE3), and cultured overnight at 37° C. in solid LB medium (kanamycin 50 μg/mL). Single colony was transferred to a 2 mL LB liquid medium (containing 50 μg/ml kanamycin) and incubated overnight. The bacterial fluid was transferred to a new 100 ml LB liquid medium with antibiotics and incubated at 37° C. and 250 r/min until OD600 reached 0.5-0.6. The culture was cooled down to 16° C. in a water bath. Then inducer IPTG was added at a final concentration of 0.1 mM. The mixture was cultured at 16° C. for low temperature induction and 180 r/min for 20 h. The BL21(DE3) recombinant strain carrying the pET28a empty plasmid was used as a blank control, and the culture operation was the same as above. The bacteria were harvested by centrifugation (6000 r/min, 5 min), re-suspended in 1 mL of lysis buffer Buffer A (20 mM Tris-HCl, pH 8.0; 100 mM NaCl), and DNase was added to a final concentration of 5 μg/mL, Mg^2+ to a final concentration of 2 mM; protease inhibitor PMSF to a final concentration of 1 mM; the bacteria were incubated on ice for 30 min and then sonicated; refrigerated centrifugation (10,000 rpm, 30 min, 4° C.), filtered through a 0.2 µm filter membrane to obtain the supernatant crude enzyme solution, and added 20% glycerol for cryopreservation (−20° C.).
The in vitro enzyme catalytic assay system is 100 μL. The reaction system includes: 0.1 mM glycosyl receptor (phloretin or 2-hydroxynaringenin), 0.3 mM UDP glucose, 25 μL supernatant crude enzyme solution, and Buffer A is used to make up the volume to 100 μL, and react at 37° C. for 2 h. After the reaction was completed, an equal volume of methanol was added to terminate the reaction, and HPLC was used for product analysis. HPLC detection conditions: chromatographic column: reverse phase C18 column [SilGreen ODS column (ø 4.6×250 mm)], detection wavelength 280 nm; mobile phase: acetonitrile (0.1% formic acid)-water (0.1% formic acid) mixture gradient elution, with increased ratio from 5:95 to 100:0 within 0 to 20 min, and the flow rate was 1 mL/min.

| Molecule | conversion of substrate phloretin to C-glycosylated product (Nothofagin) | 5′ C-glycosylation of 3′-glycosylated phloretin giving phloretin-3′,5′-C-diglucoside |
| --- | --- | --- |
| TaCGT1-B: C-glycosyltransferase from wheat, SEQ ID NO: 9 (protein, listed as Triticum aestivum) MPTSGDGSGALPHVVLLPSAGMGHLVPFSRLAVSFSSSDHGCGVSVVTVLPTVSSAESAHLDALFGACPAVRRLDFHLARFDASEFPGADPFFLRFEAMRRSAPLLGPLLAGAGASALVTDIALASVVIPVARELRLPCYVLFTASAAMLSLCVHFPAYLDANAGGPVGDVDIPGVYRVPKASIPQALHHPEHLFTRQFVANGRELAKSDGLLVNSFDEFEPEAISALRDGSVAAGFPPVFSVGPLAPVSFSAGEPPENQADYMRWLEAQPTRSVVYVSFGSRKAISKDQLKELAVGLEASGHRFLWVVKSTVVDREDEAELSELLGEGFLERVHGRGMVTKGWVEQEEVLKQESIGLFISHCGWNSVTEAAANGLPVLAWPRFGDQRVNAGVVARSGLGVWEERWSWEGEEGVVSGENIAEKVKAVMADETVRNKAVSVQDAAAKAVADGGTSYRSLAQFVQRCRDLSVSK | can convert the substrate phloretin to a product having a shorter retention time |  |
| PpCGT1: C-glycosyltransferase from high knot bamboo, SEQ ID NO: 3 (protein, listed as Phyllostachys prominens) MPTSGSRTGGRPHVILLPSAGMGHLVPFSRLAVALSSGHGCDVSVVAVLPTVSAAESRHLQGLLDASPAVRRLDLHLAPFDESEFPGADPFFLRFEAMRRSAPLLGPLLADTGESALVTDIALASVVIPVAKEIHLPCYVLFTASAAMLSFCAYFPTYLDTNAGRVVGDVDIPGVYRIPKASIPQALHDRNHLFTRQFVANGQDLAKADGVLVNTFDALELEAVTALRQGSVAAGFPPVFSVGPLVTVNLPAGEAAKESGNDYMYWLDAQPARSVVYVSFGSRKAISRNQVRELAVGLEASGQRFLWVVKSTVVDRDDSAELSELLDEGFLERVQGRGLVTKAWVEQEEVLKHESIGLFISHCGWNSVTEAAASGVPVLAWPRFGDQRVNAGVVARGGLGVWVERWSWEGEEGVVSGEEIAEKVKAVMADETVRKKAASVGEAAVKEFADGGTSYRSLTEFVRRCRDLAVLD | can convert the substrate phloretin to a product having a shorter retention time |  |
| SbCGT1: C-glycosyltransferase from Sorghum, SEQ ID NO: 6 (protein, Sorghum bicolor) MAPPATKSLGELDGGARPHVMFIPSAGMGHLLPFFRVIAALAAHDVVDISVVTVLPTVSAAEADHFASLFAALPRVSRVDFHLLPFDASSEFPGHDPFLLRWEALRRSAHLFRPLIAGAAGPRVSAVVTDVTLTSHVIPIAKELGVQCHVLFVSCATMLSLAAYTPVHLDKKNKGEHGPGVGVGVGVGDVDIPGVRRIPQSYLPQPLLDLNKLFTKQFIDNGREIINADGFLVNTFDALEPVALAALRDGKVVAGFPPVYAIGPLRSKEEEATTGSPPVAWLDEQPARSVVYVAFGNRNAVSLEQIREIAAGLEASGCRFLWVLKTTTVDRDDTAELTDDVLGEGFLERVQGRGLVTKAWVDQEAVLKHASVGLFLSHSGWNSVTEAAAAGVPLLAWPRGGDHRVNATVVVSGGVGVWMEQWSWDGEDWLVTGEEIGKKVKEVMSDAAVRARATRTGEEAAKAVAEGGTSYRSMQKFISSLKAHCSP | can convert the substrate phloretin to a product having a shorter retention time | can catalyze the glycosylation of the 3′-glycosylated phloretin at the 5′ position |
| OsCGT2: C-glycosyltransferase from Japonica rice, SEQ ID NO: 5 (protein, Oryza Sativa japonica) MCSAATPNSGDVRATPGSSRPHVVLLPSAGMGHLVPFTRLAAALCSGHGCDVSLVAAVPTVSSAEARHLAAHFTAFPAVRRLELDLASLDVSEFAGADPFYVRYEAIRRSASLLAPLLAGGASAAASALVADIALASVVIPVAKDLRLPCYVFFTASATMFSFLAYLPTYLDANAGGGHAIGDVDVPGVCRVPTSSVPQALHDPDDIFTRQFIANARSLANADGLVVNAFDALEPEAVAALRQGTVAAGLPPVFAVGPLSPAPIPAKDSGSYLPWLDAQPARSVVYVSFGSRKALPRDQLSELAAGLEASGHRFLWVVKGAVVDRDDAGELTDLLGEAFLQRIHGRGLVTMAWVRQEEVLNHPSVGLFISHCGWNSVTEAAASGVPVVAWPRFADQRVNAGVVARAGIGVWVDTWSWEGEDDGVVSAEDIAGKVRSAMADEGVRKAAASVREAAARAVAAGGSSYRSLAELVRRCRDGLVITNGM | can convert the substrate phloretin to a product having a shorter retention time |  |
| TaCGT1-A: C-glycosyltransferase from wheat, SEQ ID NO: 8 (protein, listed as Triticum aestivum) MPTSGDGPTSQPHVVLLPSAGMGHLVPFSRLAVALSSAHGCDVSLVTVLPTVSSAESSHLEALFGAFPAVRRLEFHLADFDASEFPNADPFFLRFEAMRRSAPLLLGPLLARASATALVTDIALSSVVIPVAKQLRLPCYVLFTASAAMLSLCVHFPAYLDANGNGLVGDVDIPGVYQIPKASVPQALHDPKHLFTRQFVANGRELAKSDGVLVNSFDAFEPEAIAALREGAVSAAGFFPPVFSVGPLAPVSFPAGNNNRADYIQWLEAQPARSVVYVSFGSRKAVARDQLRELAAGLEASGHRFLWVVKSTVVDRDDDADLGELLGEGFLERVQGRGMVTKGWVEQEDVLKQESVGLFISHCGWNSVTEAAAGGLPVLAWPRFGDQRVNAGVVARSGLGVWVDSWSWEGEEGVVSGESIAEKVKAVMGDEIARNKAVSVRDAAAKAVADGGTSYRNLARFAQRCRDGRVRE | can convert the substrate phloretin to a product having a shorter retention time | can catalyze the glycosylation of the 3′-glycosylated phloretin at the 5′ position |
| PhCGT2: C-glycosyltransferase from moso bamboo, SEQ ID NO: 4 (protein, listed as Phyllostachys edulis) MASRAMPSSSDRTGGAPRVVLLPSAGMGHLVPFGRLAVALSSGHACDVSVVTVLPTVSSAESKHLQGLFDAFPAVRRLDLHLAPFDASEFSDADPFYVRYEAVRRSAPLLGPLLADADASALVADIALASVVIPVAKELLIPCYIFFTASATMFSLLAYFPTYLHSNAGHSIGDVDVPGVYRIPMSSIPQALHDPNNLFTQQFVANGRSLAEADGLLVNTFDAFEPEAVTALRHGTVAPGFPPVFALGPLSPVGFPAGEAARESGNYTTWLDAQPARSVVYVSFGSRKALLRDQLSELAAGLEASGCRFLWVVKGTVVDRDDDRELRELLGEVFLQRVNGRALVTKAWVEQEEVLKHPAVGLFISHCGWNSVTEATVSGVPVLAWPRFADQRVSAGVVARRGLGVWVERWSWEGEERVVTGDEIAEKVKSVLADETLRKNSTMVREAAAAAVATGGTSYRSLAKFVRRCST | can convert the substrate phloretin to a product having a shorter retention time |  |
| SbCGT2: C-glycosyltransferase from Sorghum, SEQ ID NO: 7 (protein, Sorghum bicolor) MAPSAMPASGDHTGATPHVVLLPSAGMGHLVPFARLAVALSEGHGCDVSFAAVLPTVSSAESRHLRALFAAAPAVRRLDFRLAPFDESQFPGADPFFLRFEALRRSAPLLGPLLDAAQASALVTDIVLASVVLPVAKARGVPCYVLFTSSAAMLSLCAYFPAHLDANAAAGGGRLGVGDVDIPGVYRIPKSSVPQALHDPKHLFTQQFVANGRGLVAADGILVNTFDAFEPDAITALRQGSVVSDFPPVFAVGPLQPVRFQVAEKPAHYMRWLSAQPARSVVYVSFGSRKAISTDQLRELAAGLEASGQRFLWVVKSTVVDRDDAADLADLLGDGFLERVQGRAFVTKGWVEQEEILQHGSVGLFISHCGWNSVTEAAAFGVPVLAWPRFGDQRVNAAVVARGGLGAWEERWTWDGEKGLVTGEEVAEKINAVVGNDVVARKAARVGDAAAAAAGKGGTSYQSLADFVGRCRDAGW | can convert the substrate phloretin to a product having a shorter retention time |  |
